Data taken from paper PMC2646509.

Target: T1, PrfA L140F L140F (Listeria monocytogenes (NF-L1166)) (UniProt P22262)
T1 sequence: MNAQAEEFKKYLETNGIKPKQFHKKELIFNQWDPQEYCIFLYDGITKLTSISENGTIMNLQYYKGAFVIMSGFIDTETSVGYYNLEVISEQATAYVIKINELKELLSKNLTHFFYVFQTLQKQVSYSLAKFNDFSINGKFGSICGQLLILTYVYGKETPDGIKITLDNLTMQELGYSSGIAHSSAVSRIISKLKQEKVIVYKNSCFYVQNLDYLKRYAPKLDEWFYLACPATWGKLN
Assay: EMSA

For “GATGCTTCTAAAAAAGTTGCTGAAGCTTGGGAAGCAGTTGGGGTTAACTGATTAACAAATGTTAGAGAAAAATTAATTCTCCAAGTGATATTCTTAAAATAATTCATGAATA (double strand) [actA promoter]”, the binding was “binds”.
